Measurements as given in patent US20060003939.

Columns and labels:
[1] = biological target: 35S-methionine labeled wild type DIAP1, in vitro translated from diap1-pET14b (UniProt Q24306)
[2] = biological target: His-DIAP1 21-4S mutant (RING domain mutant), in vitro translated from diap1 21-4S pET14b (UniProt Q24306)
Chain of His-DIAP1 21-4S mutant (RING domain mutant), in vitro translated from diap1 21-4S pET14b (Q24306 other isoform, or with tags, fused parts or gaps mutant): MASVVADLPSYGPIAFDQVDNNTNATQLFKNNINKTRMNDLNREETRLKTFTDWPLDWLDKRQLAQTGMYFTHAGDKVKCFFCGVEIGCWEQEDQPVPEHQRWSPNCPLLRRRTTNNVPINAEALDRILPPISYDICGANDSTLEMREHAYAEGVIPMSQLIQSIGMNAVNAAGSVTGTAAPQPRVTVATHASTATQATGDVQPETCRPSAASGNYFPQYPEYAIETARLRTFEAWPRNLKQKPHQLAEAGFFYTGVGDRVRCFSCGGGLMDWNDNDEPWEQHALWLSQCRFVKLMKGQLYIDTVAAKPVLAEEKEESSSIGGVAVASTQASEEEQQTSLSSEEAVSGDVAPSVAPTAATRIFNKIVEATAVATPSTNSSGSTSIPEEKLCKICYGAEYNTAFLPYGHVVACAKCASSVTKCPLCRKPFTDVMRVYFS

Chain of 35S-methionine labeled wild type DIAP1, in vitro translated from diap1-pET14b (Q24306 whole entry, the tested form may be a part): as the sequence (Q24306 other isoform, or with tags, fused parts or gaps mutant) above, with Y406C counted along it

## His-UBCD1
[1]
  in vitro ubiquitination reaction: Wild-type DIAP1 (lane 4) showed marked ubiquitination
[2]
  in vitro ubiquitination reaction: whereas the His-DIAP1^21-4S mutant (RING domain mutant) did not (lane 7), in the presence of ubcD1
